Measured values reported in patent US20240116985A1, “STAPLED PEPTIDES AND METHODS THEREOF” (priority 2020, published 2024).
Starred links: 1 amine or outer side, 2 acyl side, 3 side chain; linkers in the order of their positions; H or OH if unused. Positions of bridges follow the written chain, without caps; N, C: chain ends. Non-standard residues stand in square brackets, D forms with d. Primed or numbered codes have the meaning given here. PyrS2″ = (S)-3-amino-1-((pent-4-en-1-yloxy)carbonyl)pyrrolidine-3-carboxylic acid (stapling residue), C=CCCCOC(=O)N1CC[C@@](N[*:1])(C(=O)[*:2])C1; B5(18) = 2,2-bis(4-pentenyl)glycine (2-amino-2-(pent-4-en-1-yl)hept-6-enoic acid), stitching residue, C=CCCCC(CCCC=C)(N[*:1])C(=O)[*:2]; B5(4) = 2,2-bis(4-pentenyl)glycine = 2-amino-2-(pent-4-en-1-yl)hept-6-enoic acid (stitching residue), C=CCCCC(CCCC=C)(N[*:1])C(=O)[*:2]; B5(5) = 2,2-bis(4-pentenyl)glycine, 2-amino-2-(pent-4-en-1-yl)hept-6-enoic acid (stitching residue), C=CCCCC(CCCC=C)(N[*:1])C(=O)[*:2]; TfeGA = (S)-2-amino-3-((carboxymethyl)(2,2,2-trifluoroethyl)amino)propanoic acid, O=C([C@H](CN(CC(=O)[*:3])CC(F)(F)F)N[*:1])[*:2]; B5(3) = 2,2-bis(4-pentenyl)glycine (stitching residue), C=CCCCC(CCCC=C)(N[*:1])C(=O)[*:2]; Ala(1H-tetrazol-5-yl) = N[C@@H](Cc1nnn[nH]1)C(=O)O; Phe(2-Cl) = N[C@@H](Cc1ccccc1Cl)C(=O)O; Phe(3-F) = N[C@@H](Cc1cccc(F)c1)C(=O)O; Bta = N[C@@H](Cc1csc2ccccc12)C(=O)O; αAllylPro = C=CC[C@@]1(C(=O)O)CCCN1; tBuAla = CC(C)(C)C[C@H](N)C(=O)O; 2Thi = N[C@@H](Cc1cccs1)C(=O)O; 3Thi = N[C@@H](Cc1ccsc1)C(=O)O; S8 = C=CCCCCCC[C@](C)(N)C(=O)O

Molecular target: full-length beta-Catenin (Uniprot ID P35222) (Homo sapiens (Human)) (UniProt P35222)
Test: fluorescence polarization competition; peptide titrated against 10 nM full-length beta-catenin + 10 nM 5FAM-TCF4(10-53) probe
Target sequence in this assay (P35222 whole entry, one chain of several): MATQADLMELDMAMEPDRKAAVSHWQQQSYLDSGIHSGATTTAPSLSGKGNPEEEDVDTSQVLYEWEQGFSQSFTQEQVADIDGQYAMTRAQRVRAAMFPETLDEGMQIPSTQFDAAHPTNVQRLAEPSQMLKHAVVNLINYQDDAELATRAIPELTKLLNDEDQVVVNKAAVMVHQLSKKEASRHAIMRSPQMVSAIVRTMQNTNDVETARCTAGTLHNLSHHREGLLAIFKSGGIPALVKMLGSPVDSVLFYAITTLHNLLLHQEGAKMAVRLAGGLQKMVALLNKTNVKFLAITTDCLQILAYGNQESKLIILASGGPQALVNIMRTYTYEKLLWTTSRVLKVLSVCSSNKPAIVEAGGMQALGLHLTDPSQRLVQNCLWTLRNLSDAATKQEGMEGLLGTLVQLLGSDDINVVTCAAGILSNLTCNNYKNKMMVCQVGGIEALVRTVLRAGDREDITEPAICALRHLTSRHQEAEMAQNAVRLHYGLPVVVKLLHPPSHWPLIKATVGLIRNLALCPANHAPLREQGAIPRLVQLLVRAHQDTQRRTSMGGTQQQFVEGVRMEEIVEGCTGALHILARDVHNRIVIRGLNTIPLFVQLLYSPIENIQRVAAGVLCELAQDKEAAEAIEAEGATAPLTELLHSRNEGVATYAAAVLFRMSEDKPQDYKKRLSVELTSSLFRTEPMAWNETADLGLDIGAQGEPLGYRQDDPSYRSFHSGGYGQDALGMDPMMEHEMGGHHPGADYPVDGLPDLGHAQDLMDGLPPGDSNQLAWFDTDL

| IC50 | Binder |
| --- | --- |
| 90 nM | Ac-[αAllylPro]DA[B5(3)]D[Ala(1H-tetrazol-5-yl)]AAFQ[S8]F[Bta]Q-NH2 (staple 1-4, 4-11) [I-413] |
| 92 nM | Ac-[αAllylPro]DI[B5(3)]DEAA[2Thi]Q[S8][Phe(3-F)][Bta]Q-NH2 (staple 1-4, 4-11) [I-412] |
| 145 nM | Ac-[αAllylPro]DA[B5(4)]DEAAFN[S8]F[Bta]-NH2 (staple 1-4, 4-11) [I-432] |
| 1320 nM | Ac-[αAllylPro]DA[B5(4)]DEAA[3Thi]Q[S8][Phe(3-F)][Bta]-NH2 (staple 1-4, 4-11) [I-431] |
| 60 nM | Ac-[αAllylPro]DA[B5(4)]DEAAFQ[S8][2Thi][Bta]Q-NH2 (staple 1-4, 4-11) [I-428] |
| 5000 nM | Ac-[αAllylPro][Ala(1H-tetrazol-5-yl)]A[B5(3)]DEAAFQ[S8]F[Bta]Q-NH2 (staple 1-4, 4-11; also: staple isomer composition, later eluting HPLC peak) [I-417] |
| 109 nM | Ac-[αAllylPro]DA[B5(3)]DEAAFQ[S8][3Thi][Bta]Q-NH2 (staple 1-4, 4-11; also: staple isomer composition, earlier eluting HPLC peak) [I-426] |
| 146 nM | Ac-[αAllylPro]DA[B5(4)]DEAA[3Thi]Q[S8][Phe(3-F)][Bta]Q-NH2 (staple 1-4, 4-11) [I-429] |
| 5000 nM | Ac-[αAllylPro][Ala(1H-tetrazol-5-yl)]A[B5(3)]DEAAFQ[S8]F[Bta]Q-NH2 (staple 1-4, 4-11; also: staple isomer composition, earlier eluting HPLC peak) [I-416] |
| 154 nM | Ac-[αAllylPro]DA[B5(4)]DEAA[3Thi]Q[S8][Phe(3-F)][Bta]H-NH2 (staple 1-4, 4-11) [I-430] |
| 38.5 nM | Ac-[αAllylPro]DA[B5(4)]DEAAFQ[S8][3Thi][Bta]Q-NH2 (staple 1-4, 4-11; also: staple isomer composition, later-eluting HPLC peak) [I-427] |

Molecular target: full-length beta-Catenin (Uniprot ID P35222) (Homo sapiens (Human)) (UniProt P35222)
Test: fluorescence polarization competition; displaces 5FAM-TCF4(10-53) from full-length beta-catenin
Target sequence in this assay (P35222 2-781 limits assumed): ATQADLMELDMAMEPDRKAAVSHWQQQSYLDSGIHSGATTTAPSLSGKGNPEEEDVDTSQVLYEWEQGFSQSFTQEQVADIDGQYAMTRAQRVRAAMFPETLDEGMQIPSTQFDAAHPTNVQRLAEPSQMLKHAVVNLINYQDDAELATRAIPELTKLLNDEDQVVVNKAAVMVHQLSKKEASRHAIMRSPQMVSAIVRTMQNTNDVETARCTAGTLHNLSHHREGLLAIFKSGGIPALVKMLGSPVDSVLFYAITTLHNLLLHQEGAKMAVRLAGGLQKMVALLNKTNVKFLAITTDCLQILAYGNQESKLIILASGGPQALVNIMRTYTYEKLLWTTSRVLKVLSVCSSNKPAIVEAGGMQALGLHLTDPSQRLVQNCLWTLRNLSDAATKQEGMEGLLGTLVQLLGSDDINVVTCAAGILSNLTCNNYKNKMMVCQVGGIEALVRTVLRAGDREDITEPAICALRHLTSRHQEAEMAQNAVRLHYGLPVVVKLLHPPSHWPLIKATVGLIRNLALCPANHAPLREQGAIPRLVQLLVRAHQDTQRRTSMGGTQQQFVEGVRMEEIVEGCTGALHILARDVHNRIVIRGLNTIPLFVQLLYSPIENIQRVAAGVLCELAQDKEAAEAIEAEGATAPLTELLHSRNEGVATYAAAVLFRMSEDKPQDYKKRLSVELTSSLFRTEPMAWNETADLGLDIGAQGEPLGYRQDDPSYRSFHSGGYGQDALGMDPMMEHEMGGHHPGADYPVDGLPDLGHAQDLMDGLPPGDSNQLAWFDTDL

| EC50 | Binder |
| --- | --- |
| 8 nM | Ac-[αAllylPro]D[tBuAla][B5(18)]D[TfeGA]IAFN[PyrS2″][Phe(2-Cl)][Bta]Q-NH2 (staple 1-4, 4-11) [I-1010] |
| 6 nM | Ac-[αAllylPro]D[tBuAla][B5(18)]D[TfeGA]LAFN[PyrS2″][Phe(2-Cl)][Bta]Q-NH2 (staple 1-4, 4-11) [I-1007] |
| 5 nM | Ac-[αAllylPro]D[tBuAla][B5(18)]D[TfeGA]ASFN[PyrS2″][Phe(2-Cl)][Bta]Q-NH2 (staple 1-4, 4-11) [I-1004] |
| 9 nM | Ac-[αAllylPro]D[tBuAla][B5(18)]D[TfeGA]FAFN[PyrS2″][Phe(2-Cl)][Bta]Q-NH2 (staple 1-4, 4-11) [I-1008] |
| 5 nM | Ac-[αAllylPro]D[tBuAla][B5(18)]DDAAFS[PyrS2″][Phe(2-Cl)][Bta]S-NH2 (staple 1-4, 4-11) [I-1019] |

Molecular target: Bcat-Halo (UniProt P35222)
Sequence (P35222 whole entry): as the sequence (P35222 whole entry, one chain of several) above
Test: NanoBRET Abs IC50, Bcat-Halo/TCF4-Luc in HEK293 cells

| IC50 | Binder |
| --- | --- |
| 13300 nM | Ac-[αAllylPro]D[tBuAla][B5(18)]D[TfeGA]IAFN[PyrS2″][Phe(2-Cl)][Bta]Q-NH2 (staple 1-4, 4-11) [I-1010] |
| 24900 nM | Ac-[αAllylPro]D[tBuAla][B5(18)]D[TfeGA]LAFN[PyrS2″][Phe(2-Cl)][Bta]Q-NH2 (staple 1-4, 4-11) [I-1007] |
| 10600 nM | Ac-[αAllylPro]D[tBuAla][B5(18)]D[TfeGA]ASFN[PyrS2″][Phe(2-Cl)][Bta]Q-NH2 (staple 1-4, 4-11) [I-1004] |
| 14000 nM | Ac-[αAllylPro]D[tBuAla][B5(18)]D[TfeGA]FAFN[PyrS2″][Phe(2-Cl)][Bta]Q-NH2 (staple 1-4, 4-11) [I-1008] |
| 9600 nM | Ac-[αAllylPro]D[tBuAla][B5(18)]DDAAFS[PyrS2″][Phe(2-Cl)][Bta]S-NH2 (staple 1-4, 4-11) [I-1019] |

Molecular target: full-length beta-Catenin (Uniprot ID P35222) (Homo sapiens (Human)) (UniProt P35222)
Test: fluorescence polarization competition; 10 nM full-length beta-catenin + 10 nM 5FAM-TCF4(10-53) probe
Target sequence in this assay (P35222 whole entry, one chain of several): as above

| IC50 | Binder |
| --- | --- |
| 8 nM | Ac-[αAllylPro]D[tBuAla][B5(18)]D[TfeGA]IAFN[PyrS2″][Phe(2-Cl)][Bta]Q-NH2 (staple 1-4, 4-11) [I-1010] |
| 6 nM | Ac-[αAllylPro]D[tBuAla][B5(18)]D[TfeGA]LAFN[PyrS2″][Phe(2-Cl)][Bta]Q-NH2 (staple 1-4, 4-11) [I-1007] |
| 5 nM | Ac-[αAllylPro]D[tBuAla][B5(18)]D[TfeGA]ASFN[PyrS2″][Phe(2-Cl)][Bta]Q-NH2 (staple 1-4, 4-11) [I-1004] |
| 9 nM | Ac-[αAllylPro]D[tBuAla][B5(18)]D[TfeGA]FAFN[PyrS2″][Phe(2-Cl)][Bta]Q-NH2 (staple 1-4, 4-11) [I-1008] |

Molecular target: full-length beta-Catenin (Uniprot ID P35222) (Homo sapiens (Human)) (UniProt P35222)
Test: fluorescence polarization competition; 10 nM full-length beta-catenin + 10 nM 5FAM-TCF4(10-53) probe, peptide titrated
Target sequence in this assay (P35222 2-781 limits assumed): as the sequence (P35222 2-781 limits assumed) above

| EC50 | Binder |
| --- | --- |
| 90 nM | Ac-[αAllylPro]DA[B5(3)]D[Ala(1H-tetrazol-5-yl)]AAFQ[S8]F[Bta]Q-NH2 (staple 1-4, 4-11) [I-413] |
| 92 nM | Ac-[αAllylPro]DI[B5(3)]DEAA[2Thi]Q[S8][Phe(3-F)][Bta]Q-NH2 (staple 1-4, 4-11) [I-412] |
| 145 nM | Ac-[αAllylPro]DA[B5(4)]DEAAFN[S8]F[Bta]-NH2 (staple 1-4, 4-11) [I-432] |
| 1320 nM | Ac-[αAllylPro]DA[B5(4)]DEAA[3Thi]Q[S8][Phe(3-F)][Bta]-NH2 (staple 1-4, 4-11) [I-431] |
| 60 nM | Ac-[αAllylPro]DA[B5(4)]DEAAFQ[S8][2Thi][Bta]Q-NH2 (staple 1-4, 4-11) [I-428] |
| 5000 nM | Ac-[αAllylPro][Ala(1H-tetrazol-5-yl)]A[B5(3)]DEAAFQ[S8]F[Bta]Q-NH2 (staple 1-4, 4-11; also: staple isomer composition, later eluting HPLC peak) [I-417] |
| 109 nM | Ac-[αAllylPro]DA[B5(3)]DEAAFQ[S8][3Thi][Bta]Q-NH2 (staple 1-4, 4-11; also: staple isomer composition, earlier eluting HPLC peak) [I-426] |
| 146 nM | Ac-[αAllylPro]DA[B5(4)]DEAA[3Thi]Q[S8][Phe(3-F)][Bta]Q-NH2 (staple 1-4, 4-11) [I-429] |
| 5000 nM | Ac-[αAllylPro][Ala(1H-tetrazol-5-yl)]A[B5(3)]DEAAFQ[S8]F[Bta]Q-NH2 (staple 1-4, 4-11; also: staple isomer composition, earlier eluting HPLC peak) [I-416] |
| 154 nM | Ac-[αAllylPro]DA[B5(4)]DEAA[3Thi]Q[S8][Phe(3-F)][Bta]H-NH2 (staple 1-4, 4-11) [I-430] |
| 38.5 nM | Ac-[αAllylPro]DA[B5(4)]DEAAFQ[S8][3Thi][Bta]Q-NH2 (staple 1-4, 4-11; also: staple isomer composition, later-eluting HPLC peak) [I-427] |
